This is an account of results in publication PMC3817697, “Building a pseudo-atomic model of the anaphase-promoting complex” (Acta Crystallographica Section D: Biological Crystallography, 2013).

First the molecules themselves.
B1: Cdc16 (Cut9) subunit of recombinant S. pombe APC/C (natural protein, UniProt P41889 1-671, looked up)
chain: MVVKRTQTDSRMQSTPGNHNHPDAHANAAYMTPPSMGALNANNSNSQLSTLTISPMTYLANNTSTDGSFLKERNAQNTDSLSREDYLRLWRHDALMQQQYKCAAFVGEKVLDITGNPNDAFWLAQVYCCTGDYARAKCLLTKEDLYNRSSACRYLAAFCLVKLYDWQGALNLLGETNPFRKDEKNANKLLMQDGGIKLEASMCYLRGQVYTNLSNFDRAKECYKEALMVDAKCYEAFDQLVSNHLLTADEEWDLVLKLNYSTYSKEDAAFLRSLYMLKLNKTSHEDELRRAEDYLSSINGLEKSSDLLLCKADTLFVRSRFIDVLAITTKILEIDPYNLDVYPLHLASLHESGEKNKLYLISNDLVDRHPEKAVTWLAVGIYYLCVNKISEARRYFSKSSTMDPQFGPAWIGFAHSFAIEGEHDQAISAYTTAARLFQGTHLPYLFLGMQHMQLGNILLANEYLQSSYALFQYDPLLLNELGVVAFNKSDMQTAINHFQNALLLVKKTQSNEKPWAATWANLGHAYRKLKMYDAAIDALNQGLLLSTNDANVHTAIALVYLHKKIPGLAITHLHESLAISPNEIMASDLLKRALEENSLTSGFLNSKYVFEDEVSEYMQQSNLNTSDKSMSMEDQSGKVTESVNDRTQVLYADSRSEMMMDDIEGNVSEQR
notes: Cdc16 (S. pombe name Cut9; human Apc6), TPR subunit of the S. pombe anaphase-promoting complex; Subunit within the recombinant S. pombe APC/C used for cryo-EM; the insect-cell MultiBac system is described only for the budding-yeast APC/C; also called Apc6; source: recombinant S. pombe APC/C

Data set [1] concerns the molecule itself. The data set is described as follows: cryo-EM structure; recombinant S. pombe APC/C, single-particle cryo-EM, about 12 Å, still being refined; atomic models of subunits docked into the density and refined as rigid bodies with URO.
Data set [2] deals with B1. Described as above. As to conditions: both partners purified.

With B1, in data set [1], the binding result is recorded as “binds”.

B2: Cdc27 (Nuc2) subunit of recombinant S. pombe APC/C (natural protein, UniProt P10505 1-665, looked up)
chain: MTDRLKCLIWYCIDNQNYDNSIFYSERLHAIEDSNESLYLLAYSHFLNLDYNIVYDLLDRVISHVPCTYLFARTSLILGRYKQGISAVEACRSNWRSIQPNINDSISSRGHPDASCMLDVLGTMYKKAGFLKKATDCFVEAVSINPYNFSAFQNLTAIGVPLDANNVFVIPPYLTAMKGFEKSQTNATASVPEPSFLKKSKESSSSSNKFSVSESIANSYSNSSISAFTKWFDRVDASELPGSEKERHQSLKLQSQSQTSKNLLAFNDAQKADSNNRDTSLKSHFVEPRTQALRPGARLTYKLREARSSKRGESTPQSFREEDNNLMELLKLFGKGVYLLAQYKLREALNCFQSLPIEQQNTPFVLAKLGITYFELVDYEKSEEVFQKLRDLSPSRVKDMEVFSTALWHLQKSVPLSYLAHETLETNPYSPESWCILANCFSLQREHSQALKCINRAIQLDPTFEYAYTLQGHEHSANEEYEKSKTSFRKAIRVNVRHYNAWYGLGMVYLKTGRNDQADFHFQRAAEINPNNSVLITCIGMIYERCKDYKKALDFYDRACKLDEKSSLARFKKAKVLILLHDHDKALVELEQLKAIAPDEANVHFLLGKIFKQMRKKNLALKHFTIAWNLDGKATHIIKESIENLDIPEENLLTETGEIYRNLET
notes: Cdc27 (S. pombe name Nuc2; human Apc3), TPR subunit of the S. pombe anaphase-promoting complex; Subunit within the recombinant S. pombe APC/C used for cryo-EM; also called Apc3; source: recombinant S. pombe APC/C
Turning to B2, the binding result in data set [2] and in data set [1] was “binds” in each case.

B3: Cdc23 (Cut23) subunit of recombinant S. pombe APC/C (natural protein, UniProt O94556 1-565, looked up)
chain: MTVSLNTMMGVDGLEDQEQLREIRNCLLKCISECSERGLVYAVRWAAEMLNGMNPIEMEHIPFSSTPTGEFDLDPDMANEKLLEVEEKNIYLLAKSYFDCKEFERAAYTLQNCKSSKSIFLRLYSKYLAGEKKSEEENETLLNTNLTLSSTNREFYYISEVLESLHYQGNKDPYLLYLSGVVYRKRKQDSKAIDFLKSCVLKAPFFWSAWLELSLSIDSLETLTTVVSQLPSTHIMTKIFYVYASHELHQVNSSAYEKLAEAEIIFPNSRYLKTQRALLTYDSRDFDEAESLFENILTNDPYRLDDMDTYSNVLFVLENKSKLGFLAQVASSIDKFRPETCSIIGNYYSLLSEHEKAVTYFKRALQLNRNYLSAWTLMGHEYVELKNTHAAIESYRLAVDVNRKDYRAWYGLGQTYEVLDMHFYALYYFQRATALRPYDQRMWQALGNCYEKIDRPQEAIKSYKRALLGSQTNSSILVRLGNLYEELQDLNSAASMYKQCIKTEETEISPETIKARIWLARWELGKKNYREAELYLSEVLNGDLELEEAKALLRELRSRMEHSYD
notes: Cdc23 (S. pombe name Cut23; human Apc8), TPR subunit of the S. pombe anaphase-promoting complex; Subunit within the recombinant S. pombe APC/C used for cryo-EM; also called Apc8; source: recombinant S. pombe APC/C
Take B3: the binding result in data set [2] and in data set [1] was “binds” in each case.

B4: Cdc26 (Hcn1) subunit of recombinant S. pombe APC/C (natural protein, UniProt O13916 1-80, looked up)
chain: MLRRNPTAIQITAEDVLAYDEEKLRQTLDSESTTEEALQKNEESTRLSPEKKKIIRERRIGITQIFDSSMHPSQGGAAQS
notes: Cdc26 (S. pombe name Hcn1), TPR accessory subunit of the S. pombe anaphase-promoting complex; Subunit within the recombinant S. pombe APC/C used for cryo-EM; source: recombinant S. pombe APC/C
With B4, in data set [2], the binding result was “binds”.
